In publication doi:10.1101/2024.12.26.630380:

What was measured:
Test in all cases: single-molecule fluorescence
pMcsB-HaloTag = target: T1, pMcsB-HaloTag (Geobacillus stearothermophilus (printed …, UniProt P0DMM5 1-363))
T1 sequence: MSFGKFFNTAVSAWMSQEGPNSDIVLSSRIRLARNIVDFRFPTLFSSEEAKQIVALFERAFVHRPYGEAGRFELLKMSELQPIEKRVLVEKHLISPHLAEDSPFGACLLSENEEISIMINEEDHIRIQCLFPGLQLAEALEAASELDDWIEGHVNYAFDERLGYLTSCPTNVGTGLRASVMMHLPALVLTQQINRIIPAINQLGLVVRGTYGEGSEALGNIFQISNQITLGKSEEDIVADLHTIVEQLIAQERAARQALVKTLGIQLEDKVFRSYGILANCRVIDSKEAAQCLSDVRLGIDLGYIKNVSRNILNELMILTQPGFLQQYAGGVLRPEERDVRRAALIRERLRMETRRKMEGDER

pMcsB = target: T2, pMcsB (Geobacillus stearothermophilus (printed …, UniProt P0DMM5))
T2 sequence: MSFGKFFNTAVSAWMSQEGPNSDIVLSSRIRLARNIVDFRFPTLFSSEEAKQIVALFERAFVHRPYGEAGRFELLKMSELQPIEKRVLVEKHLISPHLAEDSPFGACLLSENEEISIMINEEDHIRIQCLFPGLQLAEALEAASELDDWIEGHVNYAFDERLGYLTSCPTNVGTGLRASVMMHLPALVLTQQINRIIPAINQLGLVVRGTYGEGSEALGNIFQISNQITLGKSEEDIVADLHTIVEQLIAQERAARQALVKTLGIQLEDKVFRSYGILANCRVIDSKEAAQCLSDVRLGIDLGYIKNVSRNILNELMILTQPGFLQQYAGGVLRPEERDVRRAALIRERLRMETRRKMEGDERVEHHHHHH

CtsR = target: T3, CtsR (Geobacillus stearothermophilus (printed …, UniProt C3W947))
T3 sequence: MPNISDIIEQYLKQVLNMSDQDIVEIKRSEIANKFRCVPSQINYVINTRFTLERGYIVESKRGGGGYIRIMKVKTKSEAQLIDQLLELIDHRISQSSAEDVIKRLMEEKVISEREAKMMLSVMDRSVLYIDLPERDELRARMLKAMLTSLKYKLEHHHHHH

B1: cognate Cy3 DNA probe (T7 label) (dsDNA)
DNA 1: CGATTACGGCAATTCAGGAATACCGCTAATG
DNA 2: GCTGATTAAGGTCAAATATAGTCAAAATAGAGTTCATTAGCGGTATTCCTGAATTGCCGTAATCG
DNA 3: CTCTATTTTGACTATATTTGACCTTAATCAGC
modifications: amino-C6-dT at T7 of strand 3 (S8 printed split around it)
For B1, the binding result (pMcsB-HaloTag) was “no binding”, the binding result (pMcsB) was “no binding” and the Kd (CtsR) was roughly 12 nM.
